Target: T1, F/IX delta 111-140 (human; human adenovirus type 5, UniProt P03372 553-595)
T1 construct: domain: F domain; N-terminally F-tagged pIX truncated after residue 110 (lacks half of the leucine-repeat)
T1 sequence: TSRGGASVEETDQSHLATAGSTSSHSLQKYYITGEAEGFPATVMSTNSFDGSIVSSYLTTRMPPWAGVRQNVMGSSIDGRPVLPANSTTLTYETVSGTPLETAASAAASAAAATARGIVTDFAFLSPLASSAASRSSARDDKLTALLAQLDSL
Experiment: co-immunoprecipitation with anti-F antibody from A549 cell extracts, Western blot with anti-pIX

B1: non-tagged wild type adenovirus type 5 protein IX (other)
chain: MSTNSFDGSIVSSYLTTRMPPWAGVRQNVMGSSIDGRPVLPANSTTLTYETVSGTPLETAASAAASAAAATARGIVTDFAFLSPLASSAASRSSARDDKLTALLAQLDSLTRELNVVSQQLLDLRQQVSALKASSPPNAV
notes: tested in cell extracts; also called wt pIX; untagged wt pIX
B1: no binding.

Source: patent US20030108521A1 (published 2003)
